A short description of the series: label from the status in PepcDB records.
For the sequence “MEKASSPEKWLAKVSVTLTKAKPDEIWPLFTDFFNLHKWLPTLATCHGVHGNNGEQGCIRFCSGFSIGSNGVDSAARWSKEKLVAVNPVERVMRYEIVESNTGFESYVSTVKILPRGEDGCVIEWSFTVDPVRGLSLENLVKKYEKALEIITKNMEEDALRRRESSS”, the protein production result is given as “failed”.

Consider “MDRTQFTKIFTRYYMRSTSLGIIFTLFACAIRGVNLVVYLPYVLSASTCFTYLWASRTFTLEQKHQSVVIALILGYTLTFYLYFFLGGHFLFSSLVTINLLLTMVEFGVFWSFFTYALSMTFCFYIDLITAGNDPFKLHALKEFFIQSTFLFLFNLFIYKGLRSIECYWHGIWQKQYEQVEKLERLLEIDELTGCYSRFKGNQLIEQQIQRAQPFTLLYIDLDGFKAVNDEFGHDAGDKVLQITAQRILHLLDDGQFATRIGGDEFILCLPNIEDTKELEQFQSLLHHACSAPIFIHFQNVHIGLSVGMARFPHEGSCSDSLIQHADQMMYLTKRSRT”, for which the protein production entry is recorded as “failed”.

For the sequence “MTSSSQRLALLEAVVEQSFNAVLITDANLANGGPLIVYVNPAFCTMTGYTAEELIGLSPRILQGADTDPQVIERLRQCLSERLFFEGSTVNYRADGSPYVVEWKITPVRDDAGQVCNFVSVQQNISPRIRAEREQHLLAQALNAAFDPIIITDRNSTIVFANEAFQLITGYSAPEIIGQNPRMLRSGKHDALFYAQFNESLASGEPFRTTFINKRKDGSLFYAEHSISPLRNVEGAMTHYVSISQDVTTRLGREQKLLEIAHSDTLTGLDNRRAAEHTLERLINTARMAGKPFSFIICDIDHFKSVNDRYGHPAGDSVLKSVAAILKHRIRAFDVAARWGGEEFLILVPDSSLKQAAELAERVRKGVESLEIPEAGPVTISLGVAELSPGETAASLIQRADKVLYQAKRLGRNRVEIAQADDPAY”, the protein production entry is listed as “failed”.

On to “MTTLSTKQKQFLKGLAHHLNPVVMLGGNGLTEGVLAEIENALNHHELIKVKVAGADRETKQLIINAIVRETKAAQVQTIGHILVLYRPSEEAKIQLPRK”, for which the protein production result is given as “not failed”.

As to “MPNTIRLHRVLSAPPERVYRAFLDPLALAKWLPPEGFVCKVLEHDARVGGAYKMEFLAFASGQKHAFGGRYLELVPGERIRYTDRFDDAGLPGDMITTITLAPLSCGADLSIVQEGIPDAIPPENCYLGWQQSLKQLAALVEPDMPGLEHHHHHH”, the protein production result is recorded as “not failed”.

For the sequence “MSEMIYGIHAVQALLERAPERFQEVFILKGREDKRLLPLIHALESQGVVIQLANRQYLDEKSDGAVHQGIIARVKPGRQYQENDLPDLIASLDQPFLLILDGVTDPHNLGACLRSADAAGVHAVIVPKDRSAQLNATAKKVACGAAESVPLIRVTNLARTMRMLQEENIWIVGTAGEADHTLYQSKMTGRLALVMGAEGEGMRRLTREHCDELISIPMAGSVSSLNVSVATGICLFEAVRQRS”, the protein production entry is listed as “not failed”.

Consider “VRTLWISDVHLGTRDCQAEHLSAFLKRYQADKVYLVGDIIDGWKLRGGMYWPQAHTNVIRRLLTMSKRGTEVIYVTGNHDEFLRRYSKLILGNIQLVDEAEHVTADGRRFLVIHGDQFDVITRYHRWLAFLGDSAYEFTLTLNRWLNHWRAKYGYGYWSLSAYLKHKVKSAVNFISDFEEAIAHECVKRGLDGVVCGHIHHAEIRQVGGVEYLNCGDWVESCTALIEHLDGNIELFRLA”, for which the protein production entry is “failed”.

On to “MTDTNTLLVTSLEEGIGKTAITLALATRAHDAGYDVGYMKPKGTRLRSAVGKTRDEDPMLARELLDLETDLHDMEPIVYSPTFIQEAIRGREDPDDLRERLQEGIETCSDGTDMLLVEGSSDLATGSIVDLTDIDIAELLDARVLLVTGYDTPSDTDEILSAAEAIGDRLDGVLFNGVTDATVDELADDVVPFLEGEGIPVHGILPRDRSLAGVTVADLARNLGADILTGDANTDVHVERFSVGAMSGSSALERFRRTRDAVVVTGGDRSEVQTAALEASGINALLLTGGFQPASAVIGQAAEKNVPVLSVQSDTRTTIDRVEEVLRTGQTRNEATVDRMRTLLDDGVDVESLLSVDLLEHHHHHH”, for which the protein production result is listed as “not failed”.

In the case of “MRAAFRTLGCKVNQVETEALLGFLKALEPEVVPLEAGGADLVVINSCAVTTTAEADTRKEVRRARRYNPHAFIVVTGCYAELAPEVLKELGADAVVPNARKAELPRVILERFGLPSDPITTPPNEFWGAGERGLLNSRVRAFLKVQDGCQAGCAYCIIPRLRGKERHRDHREALAEAEALLRMGIKEIVLTGVRLGSYKGHPRGLAGLVEDLYHLGAKVRLSSIEPEDTGEDLLKVIGRYAPEVRPHLHLSLQTGSDRLLKLMGRRYDKAYYRELVQRAYDLIPGFALTTDVIAGLPTETEEEHRETLAFLEELRPTRVHAFTYTPRPKTRAASMPQVPPEVRKRRTKELIALAQRLAEERIRPRLGERVEVLVERVQGGEALGHTPDYYEARLEGEARPGETVWARVHGVEGYVLLGRVEGVKEGARGPLELPVRLEHHHHHH”, the protein production entry is reported as “failed”.

As to “MEAGFVSVGDVTFRDLEDEAIVELVRKGNTDALEYLIHKYKNFVRAKSRSYFLVGADREDIVQEGMIGLFKAIRDYKEDKLSSFKAFAELCITRQIITAIKTATRQKHIPLNSYVSLDKPIYDEESDRTLLDVISEAKVTDPEEMIISQEEYTDIESKISELLSDLERKVLSLYLDGRSYQEISEQLNRHVKSIDNALQRVKRKLERYMEMRESTTLNS”, the protein production result is listed as “failed”.

Regarding “MRDTGTSESNRSGDVVLGDDWVAPHSTVSKELRVKRARRSLFSLRGSPLTRKIITFNLIALIILVAGILYLNDARNGLVVQRAGALVGETQLVADVFEAQITGSAPVNLATGDGVDVDATLEDLSLRRGVEVFVFDTARNMVGQTKGTHVNPRLQALFEDKTGSTIITDALSGLWRAVSSIFANAPKSSAPALEQQIASLLPEALAGETRVETVLNTAGGTVIAAATPILQAGTPIGAVAMASPAGEIDALARRDRERVLQMFVVALLVSVGLSLVLASTIANPLADLAEAAELGRDRNSRRMNPGRIRIPDLSARPDEIGRLSRALRGMVSALYNRIEGNEQFAADVAHEIKNPLASLQSAVGTLRMVRREDQRDKLLSVIEHDVRRLDRLVSDISNASRLDAELVKEEEQSFNLLTMLDNLNQYLGEDARSKGIDYITDMPPDPIMIQGLEARLAQVFVNLITNAISFCEDGDAIRVWTRRRANRVLIVVEDTGPGIPDEALAKIFKRFYSQRPEEHFGNNSGLGLAISKQIVEAHGGVIWAENIRPTEADVTSDPLGARFVVGLPI”, the protein production entry was “not failed”.

With “MTTKPVLVIGGTGKTGRRVVRLLRERGVPARPASRSGEVRFDWLDESTWGPALDGASGVYIVQNDGDPRTRALVRTAVASGVQRLALLSARGVDTPGYYGEDPATSEAFLEGEAAVRESGVDWTVLRPGWFAQNFDEGFFNEGVLAGELRLPAGDGAASWIDVEDIAAVAVAALTEDGHAGRTYELSGPAPLPLAEVLSVIEAAAGRKVRYTPLTTEEFIAELGAQGIPAEEAGLWAAALYPVERGFESKVSDGVRQALGRAPRTFAEYAEAAVAEGAWRD”, the protein production result is reported as “failed”.

Take “MKALMVFMTTAENGSFSDAARKLGVSPAAISQSIARLEQELEVRLFNRTTRQLTLTEDGRRFYAQCRGPVNNLDSAINQLKASRDEPAGHLRVSMPNSFGRRFILPIMGEFCERYPKVRVFFGLDDHFSDLIEDGYDVGVRTGMMPDSRMVARNLAQMPLYVVASPEYWDQHGRPSSPEELSGYDCINFQFPTSGRLFKWEFDRKGERIPLEVNGTYTLNDMEAVAELARLGMGVAQLPGHEVVHLIRSGELEPVLTDMVSLERSIYICFPHRDHIAPRTRVFVDFVVEKLADHPDIMADLPGLDLSAKRSALQQSVGVL”: the protein production entry was “failed”.

“MKTWFKYIKLLLLSVCTFLLVTGCNSNVSKLPSNQTTSNITTNCRVINHEAGKTQICGQPKKVVALSPPVLDMMLALGVQPAGYAEVDLLNSKVFDRPKEQIPYLGDRITSQPMNVGDRGNPSLESLLQLKPDLILGEASYNETEYQILNKIAPTILISHRDGITPAWQQTISIIAQALGREDKVPTVIAEYEQKLSQAKTAIAPIAQHQELLLLAFRGITLTSFTFGAETFAGGLLQDLGFKLVSPESTEYEVALEVLPKFKSDLIVIMPSGNNNIENAKRQWSQNPILQSISAHNTNRIYFIDYQLASRIRGPIAAELFVNQVRQLLS”: the protein production result is on record as “failed”.

Take “MQYQGRSKRSKTGARLRPRSKKSKSELGREPTETTVGEPRFRTVDVRGDAEKVRVLSTNVVNVATDSGAERATIEDVSANDANPNYARRNIITKGAIIETDAGTARVTSRPGQDGQVNATRVDE”: the protein production entry is on record as “failed”.

For the sequence “VEVIRARRLLDGQASTTGYFDNIEHCIDEEFGQCSITSNDKLLLVGSGAYPMTLIQVAKETGASVIGIDIDPQAVDLGRRIVNVLAPNEDITITDQKVSELKDIKDVTHIIFSSTIPLKYSILEELYDLTNENVVVAM”, the protein production entry is reported as “failed”.

On to “MASSSKNITYPPRLYPEGLLKSSLCVFIKFADAKYIWAAHTVHYFLTNQLSVNNFHEIMSVIDGWPIRFSLTEFVDITSLNCDLLDKSTTCEIGHYEFWNEMGVGTYDGPLFIELKHVMDISKEWSYEKRLMVGRLCLLSVGVHGIYHGCRIPLSSAKLVLDPKAFEKYLWGRVAFESLVISVKIVDYKKDICDSWMCPRLVDLDL”, for which the protein production result was “failed”.

For the sequence “MPIELRRLRALRLAWGVALCLAVSFGIGLPVPILAPVFAVLLLAMRSQPLPLRAAPALALLVLLACGSGLLLIPLLRHAPLAGVLLVGVGVFLTLRYALKGGNGLLANLLVVGLTMIAAAGTSDFTLALSVVEALAKGMLLAVLGTSVVHTLFPEPANAPAPPVPPLLGSEHVSWVALRATLIVMPAFLLALIAPDQYMPLIMKAVSVGQQAGETRARHASRELIGSTLLAGVLAIALWVALSLFVHLWMFFLWVLLFALWQARRLYQAVPSRQSPAYWVSCLTTMLILLGQSVQDSAGGQDVYKAFAVRMALFLAVSVYASAMLIWIDRLRSRRGLLRG”, the protein production result is “failed”.

“MKKEYGYPTLKVICQASAGNETAIREILKFYDAYICKLCLRPFYHFESGKITMQVDEELKGQIHIEMMKAILKFEIRVK”: the protein production result was “failed”.

On to “MTASSKRTKKQAILETALQLFVSQGFHGTSTATIAREAGVATGTLFHHFPSKEQLLEQLFLGVKQEFADAIQASVSSRGDLKQDAEQLWFAALTWAMANPLKQAFFQLYSMSPTVEQSVRDQAMHGILGFIAELIRQGQASGELAEYPIELMQDNCHGQYLAATRYFVDHPERWQQAHERSASFALFWNAMAVR”, for which the protein production entry is listed as “not failed”.

For “MRASHETTTSMGHDHNHAPSEIRHETPLWWALGLTATFLLAEIIGAFVTNSLALLSDAAHMATDTVGLMIALVAVRLSRRPADARRTYGYVRLEALGALANGALLFAVGGYILWEAAQRVRAPQDIAYGGMLLIAGFGLVINLIAMKLLHAGSGESLNVKGAYLEVWSDMLGSMAVIIGALLIHWTSWQWIDPVLAVLIGLWVLPRTWVLLREAINVLLEGVPKGIDLAQVQQALTSHPGVEDVHDLHVWALASSTPALTAHIVVNEATDRDRLRDALATLLHDRFDIVHVTLQVESGDCGTEPCGTPKPAADAGHDAHHGHSHAHGHSHH”, the protein production result is listed as “failed”.

Regarding “MGVVERAIAPSVLAALADTPVVVVNGARQVGKTTLVARLDYPGSSEVVSLDDVANRDAARDDPRAFVSRPVDTLVIDEAQLEPGLFRAIKAEVDRDRRPGRFLLTGSARLLSAPDMADALVGRVEIIELWPFSQGERAGIADGFVDALFTAPRELIHGSDMRRADLVDRIATGGFPDIVARSPSRRRAWFDNYLTTATQSVIREISPIERLAEMPRVLRLCAARTGAELNVSALANDLSIPARTTAGYLALLEAAFLIHRVPAWSTNLSRKVIRRPKLVVSDSGLACHLLGVTGATLDRPGRPLGPLLETFVANEIRKQLTWSTERPSLWHFRDRGGAEVDLVLEHPDGRVCGIEVKATSTPRAEDLRGLRYLAERLDDRFQFGVLLTAAPEATPFGPTLAALPVSTLWAG”, the protein production entry is “failed”.
